According to patent CN113151186A (UNIV SHANGHAI JIAOTONG, dated 2021):

Target: T1, 全长CD271蛋白抗原 (human CD271, full-length protein antigen) (human, UniProt P08138 29-250, limits assumed)
T1 construct: Printed only as full-length CD271 protein; also called CD271全长蛋白; 全长抗原CD271
T1 sequence (looked up): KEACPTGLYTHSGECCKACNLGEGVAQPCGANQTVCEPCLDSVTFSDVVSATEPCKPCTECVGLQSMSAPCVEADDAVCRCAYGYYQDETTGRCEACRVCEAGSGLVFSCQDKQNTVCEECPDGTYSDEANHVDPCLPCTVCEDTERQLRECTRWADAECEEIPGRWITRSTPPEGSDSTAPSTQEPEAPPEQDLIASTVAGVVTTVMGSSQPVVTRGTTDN
Assay: BLI (ForteBio), full-length CD271 immobilised on ProA sensor, antibody at 30-130 nM

Kd: 3.37 nM | koff: 0.000225 s⁻¹ | kon: 66900 M⁻¹ s⁻¹
B1: 抗人CD271单克隆抗体 CD271T-2 (小鼠腹水纯化抗体, 杂交瘤细胞株CD271T-2, CGMCC 21494) (antibody, V domains shown)
VH: QVTLKESGPGILKPSQTLSLTCSFSGFSLSTSGMGVGWIRQPSGKGLEWLAHIWWDDDKYYNPSLKSQLTISKDTSRNQVFLKITSVDTAGTATYYCARRDYGNYYAMDYWGQGTSVTVS
VL: DIVLTQSPASLAVSLGQRATISCKASQSVDYDGDSYMNWYQQKPGQPPKLLIYAASNLESGIPARFSGSGSGTDFTLNIHPVEEEDAATYYCQQSNEDPFTFGSGTKLEIK
notes: It was purified from mouse ascites on MabSelect SuRe; also called CD271T-2腹水纯化抗体; 抗人CD271腹水抗体
